Assay [1] deals with T1, HA-dmRanGAP (Drosophila melanogaster, UniProt Q9VIW3 1-596).
T1 sequence (looked up): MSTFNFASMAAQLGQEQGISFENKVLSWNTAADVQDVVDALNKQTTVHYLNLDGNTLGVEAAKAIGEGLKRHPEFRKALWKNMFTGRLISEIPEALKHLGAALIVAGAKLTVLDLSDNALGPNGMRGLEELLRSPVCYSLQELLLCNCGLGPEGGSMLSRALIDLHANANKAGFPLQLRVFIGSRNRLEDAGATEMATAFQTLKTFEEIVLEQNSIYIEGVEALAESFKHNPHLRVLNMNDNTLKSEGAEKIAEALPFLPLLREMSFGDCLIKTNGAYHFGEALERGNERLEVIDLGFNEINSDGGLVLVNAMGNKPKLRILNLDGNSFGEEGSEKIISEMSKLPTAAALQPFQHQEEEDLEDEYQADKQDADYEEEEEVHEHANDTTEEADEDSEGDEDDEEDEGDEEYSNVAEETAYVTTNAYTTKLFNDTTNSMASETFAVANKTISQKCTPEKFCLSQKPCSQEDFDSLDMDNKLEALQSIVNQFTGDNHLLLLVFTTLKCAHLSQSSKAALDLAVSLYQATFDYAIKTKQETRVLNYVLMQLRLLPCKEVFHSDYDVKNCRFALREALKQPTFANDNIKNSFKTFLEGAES
The experiment in a line: pull-down.

Assay [2] concerns the target T1, HA-dmRanGAP. The experiment in a line: pull-down. This is another data set of the same source.

Read-outs that look alike come from different tables or passages of the source. No end group written: not given here. *: point of attachment. Biotin = O=C1N[C@H]2[C@H](CS[C@H]2CCCCC(=O)*)N1

Here are results for two molecules from article PMC11166264 (Cell reports, 2021).

Consider Biotin-VRPTTHEVIPPLPMTLPLLTLPQ [Biotinylated BP2 peptide (aa 2197-2219 of dmRanBP2)], for which the binding result with HA-dmRanGAP [1] was “binds”.

B1: dmRanBP2B-Frag (aa 2151-2250 of dmRanBP2B isoform) (domain or fragment, Drosophila melanogaster, UniProt A0A0B4K7J2 2151-2250, looked up)
chain: KPIEDSPVVGSVSQSTEANKPSQKNDGAAKSRGGESEVLDVGKTSSVRPTTHEVIPPLPMTLPLLTLPQPLAKPNDYQTPATILFKGSSLSRNNSSASEA
For the molecule B1, the binding result with HA-dmRanGAP [2] is recorded as “binds”.
